Assay [1] concerns the target T1, mouse IL-1β peptide 21LFFEVD26 (mouse).
T1 construct: Liberated C-terminus of the noncanonical cleavage site, with free C-terminal Asp
T1 peptide: LFFEVD-OH
Nature of the assay: X-ray co-crystal structure.

Another assay has as its target T2, IL-18 peptide 30GDLESD35.
T2 construct: Liberated C-terminus of IL-18, with free C-terminal Asp
T2 peptide: GDLESD
The assay is described as follows: X-ray co-crystal structure.

No end group written: not given here.

B1: CJ11 Fab (Fab, V domains shown)
VH: QSVEESGGGLVTPGTPLTLTCTVSGIDLSRYAMSWVRQAPGKGLEWIGIFGSLGGIFYASWAKGRFTISKTSPTTVDLKITSPTTEDTATYFCARMPYTTDRDFWGPGTLVTVSS
VL: DIVMTQTPSSTSAAVGGTVTITCQASQSVANNNYLKWYQQKRGQPPKQLIYSVSTLASGVPSRFKGSGSGTQFTLTISDLECDDAATYYCSGYFNNNIGAFGGGTKLEIK
notes: also called its Fab
In the case of B1, in assay [1], the binding result is on record as “binds”.

B2: CJ11 Fab modified by reductive lysine methylation (Fab, V domains shown)
VH: B1 VH
VL: B1 VL
modifications: lysines modified by reductive methylation
Turning to B2, the binding result in the assay with IL-18 peptide 30GDLESD35 is “binds”.

For the origin of these results see US20230399417A1 (Genentech, published 2023).
